Values quoted from earlier work, collected in patent US20100233200A1, “VECTOR ENCODING THERAPEUTIC POLYPEPTIDE AND SAFETY ELEMENTS TO CLEAR […]” (priority 2007, published 2010).

System: human tmpk
Details: relative to wild-type tmpk; cited from earlier work

| Molecule | enzymatic activity (dTMP to dTDP or AZT-MP to AZT-DP) |
| --- | --- |
| F105Y mutant: modified human tmpk, SEQ ID NO: 11, SEQ ID NO: 21 (protein, UniProt P23919 2-212, looked up, variant F105Y) Thymidylate kinase: AARRGALIVLEGVDRAGKSTQSRKLVEALCAAGHRAELLRFPERSTEIGKLLSSYLQKKSDVEDHSVHLLFSANRWEQVPLIKEKLSQGVTLVVDRYAFSGVAYTGAKENFSLDWCKQPDVGLPKPDLVLFLQLQLADAAKRGAFGHERYENGAFQERALRCFHQLMKDTTLNWKMVDASKSIEAVHEDIRVLSEDAIRTATEKPLGELWK | superior enzymatic activity |
| R200A mutant: modified human tmpk, SEQ ID NOS: 15 and 16 (protein) MAARRGALIVLEGVDRAGKSTQSRKLVEALCAAGHRAELLRFPERSTEIGKLLSSYLQKKSDVEDHSVHLLFSANRWEQVPLIKEKLSQGVTLVVDRYAFSGVAFTGAKENFSLDWCKQPDVGLPKPDLVLFLQLQLADAAKRGAFGHERYENGAFQERALRCFHQLMKDTTLNWKMVDASKSIEAVHEDIRVLSEDAIATATEKPLGELWK | superior enzymatic activity |
